These are literature values, as cited in PMC12384152.

In the data set the target is β-spectrin repeats 14-15 (Homo sapiens) (UniProt P11277).
Sequence of UniProt P11277 (P11277 1691-1907): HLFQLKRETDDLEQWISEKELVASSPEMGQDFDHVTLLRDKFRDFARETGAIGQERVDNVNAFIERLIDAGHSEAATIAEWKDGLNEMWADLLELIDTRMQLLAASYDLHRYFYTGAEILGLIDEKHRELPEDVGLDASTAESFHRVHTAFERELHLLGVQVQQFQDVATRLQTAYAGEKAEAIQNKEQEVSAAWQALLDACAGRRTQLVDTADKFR

With ankyrin-1 ZU5 (from UniProt P16157), the Kd is 15 nM.

In general, Kd refers to the concentration at which binding is half-saturated.
